Results: patent US20220242935A1

Experiments:
Test in all cases: crystal structure of the Fab-NA complex
[1] = target: N2 NA ectodomain of A/Japan/305/1957 (H2N2) (influenza A virus A/Japan/305/1957 (H2N2))
[2] = target: N1 NA ectodomain of A/California/04/2009 (H1N1) (influenza A virus A/California/04/2009 (H1N1)) (UniProt Q6DPI6)
[3] = target: N9 NA ectodomain of A/Hunan/02650/2016 (H7N9) (influenza A virus A/Hunan/02650/2016 (H7N9))

Substance: 1E01 Fab
- total buried surface area on the NA [1]: 900 Å2

Substance: 1G01 Fab
- total buried surface area on the NA [2]: 800 Å2

Substance: 1G04 Fab
- total buried surface area on the NA [3]: 1030 Å2
